The values below come from paper PMC12508155 (Nature Communications, 2025).

For one data set, the target named is T1, MgdL (Vreelandella boliviensis, UniProt A0A265DXW6).
T1 construct: gene CE457_11615; full length, N-terminal 6xHis tag with TEV site (cleavage not mentioned), expressed in E. coli BL21
T1 sequence (A0A265DXW6 1-250): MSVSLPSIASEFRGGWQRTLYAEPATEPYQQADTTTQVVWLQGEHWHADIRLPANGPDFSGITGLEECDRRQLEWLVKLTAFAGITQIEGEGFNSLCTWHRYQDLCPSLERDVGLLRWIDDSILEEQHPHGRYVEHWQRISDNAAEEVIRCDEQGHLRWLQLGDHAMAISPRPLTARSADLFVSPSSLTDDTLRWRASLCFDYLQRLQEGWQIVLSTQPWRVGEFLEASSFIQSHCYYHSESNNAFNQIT
The data set can be described thus: LC-MS time course, coupled with MgdH. Format: biochemical. The following applies: N-(hydroxymethyl)guanidine formed in situ by MgdH from 0.5 mM methylguanidine with 5 mM 2-OG; MgdL 20 µg/mL.

Data set [1] concerns Gd-II riboswitch (guanidine class II riboswitch) (RNA, riboswitch) GCCCUAGGGACGACCCUAGAAGGCCAAGCAACCUGCGGGACGACCCGC
The data set can be described thus: in-line probing. The following applies: 100 mM KCl, 20 mM MgCl2, 50 mM Tris-HCl pH 8.3, 25 °C, 40 h; for apparent KD: Hill fit, two binding sites.

Substrate in data set [2]: CNC(=N)N
The experiment in a line: oxygen consumption, Clark-type electrode. Format: biochemical, Vreelandella boliviensis. The note with it: 2-OG fixed at 10 mM (5 mM in Methods), Fe(II), ascorbate, MOPS pH 7.2, 30 °C.

Substrate in data set [3]: O=C(O)CCC(=O)C(=O)O
The data set can be described thus: oxygen consumption, Clark-type electrode. It counts as biochemical, Vreelandella boliviensis. The following applies: methylguanidine fixed at 2.5 mM, Fe(II), ascorbate, MOPS pH 7.2, 30 °C.

Substrate in data set [4]: CN(C)C(=N)N
The data set can be described thus: oxygen consumption, Clark-type electrode. Format: biochemical, Vreelandella boliviensis. The following applies: 2-OG 5 mM, Fe(II), ascorbate, MOPS pH 7.2, 30 °C.

For orientation: apparent KD means a dissociation constant that holds for the conditions of the assay. One may read the Km as the concentration of substrate that gives half-maximal velocity. The kcat is the number of substrate molecules converted per active site and unit of time at saturation.

On to `N=C(N)NCO` [N-(hydroxymethyl)guanidine], for which the “LC-MS time course, coupled with MgdH” value at MgdL is reported as “its presence clearly accelerated the fragmentation of N-(hydroxymethyl)guanidine”.
As to `CNC(=N)N`, in data set [1], the “apparent KD” value amounted to 83 ± 5 µM.
Still for that read-out and setting: the result for `N=C(N)N` reads 93 ± 6 µM.
As for `CN(C)C(=N)N`, in data set [1] (no conformational change, highest concentration not in material), the binding result is “no”.

B1: MgdH (Vreelandella boliviensis LC1) (protein)
chain: MSQASNDLRLADFQAIPVIDIGDLLSGDLNARKAVAEQLGRAAREVGFFQMVGHGINPSLRQGLINQAKRFFAQPTETKMERYIGLYHHHRGYVPPGEESPDPNNPDMKEAFDLAFELPSDDPDVLAGTALLGPNPWPALEGFRQPVAAYYDAAYQVGRALMGGFALALGHEESHFLHHVTKPPSQLRLIHYPYNPDAEDAQGIGAHTDYECFTLLLPTAPGLEVMNGAGEWIDVPFRDDALVVNIGDMLEIWSNGEFVATSHRVRKVKEERYSFPLFFACDYHTVVAPLPELVKRHGQAFYPPLKAGDHLYAQTIQTFNYLRERLARGEIALPDGAREVGSLGQHGKHKETP
notes: full length, N-terminal 6xHis tag with TEV site (cleavage not mentioned), expressed in E. coli BL21, 41 kDa
Turning to B1, the Km was determined as 160 ± 10 µM in data set [2], 530 ± 50 µM in data set [3] and 250 ± 10 µM in data set [4]. Besides, the kcat was determined as 19.6 ± 0.4 s⁻¹ in data set [2], 20.5 ± 0.5 s⁻¹ in data set [3] and 17.3 ± 0.2 s⁻¹ in data set [4].
